Laboratory results taken from PMC2776356 (2009).

B1: wild-type GST-Nkd1 [human] / in vitro translated ^35[S]-labelled Dvl2 [modified: 35S-methionine label; 35S-methionine label] [not stated (human or mouse cDNA cloned)] (parent complex)
chain 1: MGKLHSKPAAVCKRRESPEGDSFAVSAAWARKGIEEWIGRQRCPGGVSGPRQLRLAGTIGRSTRELVGDVLRDTLSEEEEDDFRLEVALPPEKTDGLGSGDEKKMERVSEPCPGSKKQLKFEELQCDVSMEEDSRQEWTFTLYDFDNNGKVTREDITSLLHTIYEVVDSSVNHSPTSSKMLRVKLTVAPDGSQSKRSVLVNQADLQSARPRAETKPTEDLRSWEKKQRAPLRFQGDSRLEQSGCYHHCVDENIERRNHYLDLAGIENYTSQFGPGSPSVAQKSELPPRTSNPTRSRSHEPEAIHIPHRKPQGVDPASFHFLDTPIAKVSELQQRLRGTQDGSKHFVRSPKAQGKSVGVGHVARGARNKPPLGPAIPAVSPSAHLAASPALLPSLAPLGHKKHKHRAKESQQGCRGLQAPLASGGPVLGREHLRELPALVVYESQAGQPVQRHEHHHHHEHHHHYHHFYQT
chain 2: MAGSSTGGGGVGETKVIYHLDEEETPYLVKIPVPAERITLGDFKSVLQRPAGAKYFFKSMDQDFGVVKEEISDDNARLPCFNGRVVSWLVSSDNPQPEMAPPVHEPRAELAPPAPPLPPLPPERTSGIGDSRPPSFHPNVSSSHENLEPETETESVVSLRRERPRRRDSSEHGAGGHRTGGPSRLERHLAGYESSSTLMTSELESTSLGDSDEEDTMSRFSSSTEQSSASRLLKRHRRRRKQRPPRLERTSSFSSVTDSTMSLNIITVTLNMEKYNFLGISIVGQSNERGDGGIYIGSIMKGGAVAADGRIEPGDMLLQVNDMNFENMSNDDAVRVLRDIVHKPGPIVLTVAKCWDPSPQAYFTLPRNEPIQPIDPAAWVSHSAALTGTFPAYPGSSSMSTITSGSSLPDGCEGRGLSVHTDMASVTKAMAAPESGLEVRDRMWLKITIPNAFLGSDVVDWLYHHVEGFPERREARKYASGLLKAGLIRHTVNKITFSEQCYYVFGDLSGGCESYLVNLSLNDNDGSSGASDQDTLAPLPGATPWPLLPTFSYQYPAPHPYSPQPPPYHELSSYTYGGGSASSQHSEGSRSSGSTRSDGGAGRTGRPEERAPESKSGSGSESEPSSRGGSLRRGGEASGTSDGGPPPSRGSTGGAPNLRAHPGLHPYGPPPGMALPYNPMMVVMMPPPPPPVPPAVQPPGAPPVRDLGSVPPELTASRQSFHMAMGNPSEFFVDVM
B2: wild-type GST-Nkd1 [human] / in vitro translated ^35[S]-labelled Dvl1 [modified: 35S-methionine label; 35S-methionine label] [human] (parent complex)
chain 1: B1 chain 1
chain 2: MAETKIIYHMDEEETPYLVKLPVAPERVTLADFKNVLSNRPVHAYKFFFKSMDQDFGVVKEEIFDDNAKLPCFNGRVVSWLVLAEGAHSDAGSQGTDSHTDLPPPLERTGGIGDSRPPSFHPNVASSRDGMDNETGTESMVSHRRERARRRNREEAARTNGHPRGDRRRDVGLPPDSASTALSSELESSSFVDSDEDGSTSRLSSSTEQSTSSRLIRKHKRRRRKQRLRQADRASSFSSITDSTMSLNIVTVTLNMERHHFLGISIVGQSNDRGDGGIYIGSIMKGGAVAADGRIEPGDMLLQVNDVNFENMSNDDAVRVLREIVSQTGPISLTVAKCWDPTPRSYFTVPRADPVRPIDPAAWLSHTAALTGALPRYGTSPCSSAVTRTSSSSLTSSVPGAPQLEEAPLTVKSDMSAVVRVMQLPDSGLEIRDRMWLKITIANAVIGADVVDWLYTHVEGFKERREARKYASSLLKHGFLRHTVNKITFSEQCYYVFGDLCSNLATLNLNSGSSGTSDQDTLAPLPHPAAPWPLGQGYPYQYPGPPPCFPPAYQDPGFSYGSGSTGSQQSEGSKSSGSTRSSRRAPGREKERRAAGAGGSGSESDHTAPSGVGSSWRERPAGQLSRGSSPRSQASATAPGLPPPHPTTKAYTVVGGPPGGPPVRELAAVPPELTGSRQSFQKAMGNPCEFFVDIM
B3: wild-type GST-Nkd1 [human] / in vitro translated ^35[S]-labelled Dvl3 [modified: 35S-methionine label; 35S-methionine label] [human] (parent complex)
chain 1: B1 chain 1
chain 2: MGETKIIYHLDGQETPYLVKLPLPAERVTLADFKGVLQRPSYKFFFKSMDDDFGVVKEEISDDNAKLPCFNGRVVSWLVSAEGSHPDPAPFCADNPSELPPPMERTGGIGDSRPPSFHPHAGGGSQENLDNDTETDSLVSAQRERPRRRDGPEHATRLNGTAKGERRREPGGYDSSSTLMSSELETTSFFDSDEDDSTSRFSSSTEQSSASRLMRRHKRRRRKQKVSRIERSSSFSSITDSTMSLNIITVTLNMEKYNFLGISIVGQSNERGDGGIYIGSIMKGGAVAADGRIEPGDMLLQVNEINFENMSNDDAVRVLREIVHKPGPITLTVAKCWDPSPRGCFTLPRSEPIRPIDPAAWVSHTAAMTGTFPAYGMSPSLSTITSTSSSITSSIPDTERLDDFHLSIHSDMAAIVKAMASPESGLEVRDRMWLKITIPNAFIGSDVVDWLYHNVEGFTDRREARKYASNLLKAGFIRHTVNKITFSEQCYYIFGDLCGNMANLSLHDHDGSSGASDQDTLAPLPHPGAAPWPMAFPYQYPPPPHPYNPHPGFPELGYSYGGGSASSQHSEGSRSSGSNRSGSDRRKEKDPKAGDSKSGGSGSESDHTTRSSLRGPRERAPSERSGPAASEHSHRSHHSLASSLRSHHTHPSYGPPGVPPLYGPPMLMMPPPPAAMGPPGAPPGRDLASVPPELTASRQSFRMAMGNPSEFFVDVM

Variants of: B1
Test: GST-pulldown; parent: 1; read off a plot

ratio to parent | Variant
~0.14 | chain 1 MGKLHSKPAAVCKRRESPEGDSFAVSAAWARKGIEEWIGRQRCPGGVSGPRQLRLAGTIGRSTRELVGDVLRDTLSEEEEDDFRLEVALPPEKTDGLGSGDEKKMERVSEPCPGSKKQLKFEELQCDVSMEEDSRQEWTFTLYDFDNNGKVTREDITSLLHTIYEVVDSSVNHSPTSSKMLRVKLTVAPDGSQSKRSVLVNQADLQSARPRAETKPTEDLRSWEKKQRAPLRFQGDSRLEQSGCYHHCVDENIERRNHYLDLAGIENYTSQFGPGSPSVAQKSELPPHTSNPTRSRSHEPEAIHIPHRKPQGVDPASFHFLDTPIAKVSELQQRLRGTQDGSKHFVRSPKAQGKSVGVGHVARGARNKPPLGPAIPAVSPSAHLAASPALLPSLAPLGHKKHKHRAKESQQGCRGLQAPLASGGPVLGREHLRELPALVVYESQAGQPVQRHEHHHHHEHHHHYHHFYQT [chain 1 R288H]

Variants of: B1
Test: yeast two-hybrid (quantitative ONPG assay); parent: 4.7; read off a plot

response [ONPG units] | Variant
~2.5 | chain 1 MGKLHSKPAAVCKRRESPEGDSFAVSAAWARKGIEEWIGRQRCPGGVSGPRQLRLAGTIGRSTRELVGDVLRDTLSEEEEDDFRLEVALPPEKTDGLGSGDEKKMERVSEPCPGSKKQLKFEELQCDVSMEEDSRQEWTFTLYDFDNNGKVTREDITSLLHTIYEVVDSSVNHSPTSSKMLRVKLTVAPDGSQSKRSVLVNQADLQSARPRAETKPTEDLRSWEKKQRAPLRFQGDSRLEQSGCYHHCVDENIERRNHYLDLAGIENYTSQFGPGSPSVAQKSELPPHTSNPTRSRSHEPEAIHIPHRKPQGVDPASFHFLDTPIAKVSELQQRLRGTQDGSKHFVRSPKAQGKSVGVGHVARGARNKPPLGPAIPAVSPSAHLAASPALLPSLAPLGHKKHKHRAKESQQGCRGLQAPLASGGPVLGREHLRELPALVVYESQAGQPVQRHEHHHHHEHHHHYHHFYQT [chain 1 R288H]

Variants of: B2
Test: GST-pulldown; parent: 1; read off a plot

ratio to parent | Variant
~0.19 | chain 1 MGKLHSKPAAVCKRRESPEGDSFAVSAAWARKGIEEWIGRQRCPGGVSGPRQLRLAGTIGRSTRELVGDVLRDTLSEEEEDDFRLEVALPPEKTDGLGSGDEKKMERVSEPCPGSKKQLKFEELQCDVSMEEDSRQEWTFTLYDFDNNGKVTREDITSLLHTIYEVVDSSVNHSPTSSKMLRVKLTVAPDGSQSKRSVLVNQADLQSARPRAETKPTEDLRSWEKKQRAPLRFQGDSRLEQSGCYHHCVDENIERRNHYLDLAGIENYTSQFGPGSPSVAQKSELPPHTSNPTRSRSHEPEAIHIPHRKPQGVDPASFHFLDTPIAKVSELQQRLRGTQDGSKHFVRSPKAQGKSVGVGHVARGARNKPPLGPAIPAVSPSAHLAASPALLPSLAPLGHKKHKHRAKESQQGCRGLQAPLASGGPVLGREHLRELPALVVYESQAGQPVQRHEHHHHHEHHHHYHHFYQT [chain 1 R288H]

Variants of: B2
Test: yeast two-hybrid (quantitative ONPG assay); parent: 6.2; read off a plot

response [ONPG units] | Variant
~2.4 | chain 1 MGKLHSKPAAVCKRRESPEGDSFAVSAAWARKGIEEWIGRQRCPGGVSGPRQLRLAGTIGRSTRELVGDVLRDTLSEEEEDDFRLEVALPPEKTDGLGSGDEKKMERVSEPCPGSKKQLKFEELQCDVSMEEDSRQEWTFTLYDFDNNGKVTREDITSLLHTIYEVVDSSVNHSPTSSKMLRVKLTVAPDGSQSKRSVLVNQADLQSARPRAETKPTEDLRSWEKKQRAPLRFQGDSRLEQSGCYHHCVDENIERRNHYLDLAGIENYTSQFGPGSPSVAQKSELPPHTSNPTRSRSHEPEAIHIPHRKPQGVDPASFHFLDTPIAKVSELQQRLRGTQDGSKHFVRSPKAQGKSVGVGHVARGARNKPPLGPAIPAVSPSAHLAASPALLPSLAPLGHKKHKHRAKESQQGCRGLQAPLASGGPVLGREHLRELPALVVYESQAGQPVQRHEHHHHHEHHHHYHHFYQT [chain 1 R288H]

Variants of: B3
Test: GST-pulldown; parent: 1; read off a plot

ratio to parent | Variant
~0.7 | chain 1 MGKLHSKPAAVCKRRESPEGDSFAVSAAWARKGIEEWIGRQRCPGGVSGPRQLRLAGTIGRSTRELVGDVLRDTLSEEEEDDFRLEVALPPEKTDGLGSGDEKKMERVSEPCPGSKKQLKFEELQCDVSMEEDSRQEWTFTLYDFDNNGKVTREDITSLLHTIYEVVDSSVNHSPTSSKMLRVKLTVAPDGSQSKRSVLVNQADLQSARPRAETKPTEDLRSWEKKQRAPLRFQGDSRLEQSGCYHHCVDENIERRNHYLDLAGIENYTSQFGPGSPSVAQKSELPPHTSNPTRSRSHEPEAIHIPHRKPQGVDPASFHFLDTPIAKVSELQQRLRGTQDGSKHFVRSPKAQGKSVGVGHVARGARNKPPLGPAIPAVSPSAHLAASPALLPSLAPLGHKKHKHRAKESQQGCRGLQAPLASGGPVLGREHLRELPALVVYESQAGQPVQRHEHHHHHEHHHHYHHFYQT [chain 1 R288H]

Variants of: B3
Test: yeast two-hybrid (quantitative ONPG assay); parent: 4; read off a plot

response [ONPG units] | Variant
~3 | chain 1 MGKLHSKPAAVCKRRESPEGDSFAVSAAWARKGIEEWIGRQRCPGGVSGPRQLRLAGTIGRSTRELVGDVLRDTLSEEEEDDFRLEVALPPEKTDGLGSGDEKKMERVSEPCPGSKKQLKFEELQCDVSMEEDSRQEWTFTLYDFDNNGKVTREDITSLLHTIYEVVDSSVNHSPTSSKMLRVKLTVAPDGSQSKRSVLVNQADLQSARPRAETKPTEDLRSWEKKQRAPLRFQGDSRLEQSGCYHHCVDENIERRNHYLDLAGIENYTSQFGPGSPSVAQKSELPPHTSNPTRSRSHEPEAIHIPHRKPQGVDPASFHFLDTPIAKVSELQQRLRGTQDGSKHFVRSPKAQGKSVGVGHVARGARNKPPLGPAIPAVSPSAHLAASPALLPSLAPLGHKKHKHRAKESQQGCRGLQAPLASGGPVLGREHLRELPALVVYESQAGQPVQRHEHHHHHEHHHHYHHFYQT [chain 1 R288H]
